The values that follow come from patent US9266964.

The test concerns the target human plasma kallikrein (human) (UniProt P03952). Nature of the test: ELISA; signal on coated biotinylated human plasma kallikrein divided by signal on streptavidin; Fab. (In an ELISA, binding on a coated surface is turned into a signal by an enzyme label.)

human plasma kallikrein (human), sequence (P03952 20-390, chain 1 of 2): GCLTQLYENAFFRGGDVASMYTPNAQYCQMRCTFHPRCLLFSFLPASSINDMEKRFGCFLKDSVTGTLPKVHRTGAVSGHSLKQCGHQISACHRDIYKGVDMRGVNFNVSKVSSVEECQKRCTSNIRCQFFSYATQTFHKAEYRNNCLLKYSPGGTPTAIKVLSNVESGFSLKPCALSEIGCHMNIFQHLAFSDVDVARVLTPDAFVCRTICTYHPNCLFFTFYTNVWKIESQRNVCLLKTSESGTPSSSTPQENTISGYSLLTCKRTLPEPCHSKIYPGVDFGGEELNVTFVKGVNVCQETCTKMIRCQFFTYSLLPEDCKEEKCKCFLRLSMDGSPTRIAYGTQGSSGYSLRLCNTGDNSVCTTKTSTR
human plasma kallikrein (human), sequence (P03952 391-638, chain 2 of 2): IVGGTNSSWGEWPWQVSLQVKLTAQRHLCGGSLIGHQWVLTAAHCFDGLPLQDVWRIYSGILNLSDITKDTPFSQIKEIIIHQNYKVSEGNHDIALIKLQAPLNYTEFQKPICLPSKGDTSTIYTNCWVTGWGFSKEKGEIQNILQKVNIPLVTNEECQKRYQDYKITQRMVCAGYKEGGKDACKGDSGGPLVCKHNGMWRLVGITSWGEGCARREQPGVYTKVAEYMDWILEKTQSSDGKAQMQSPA

B1: M28-F01 (Fab, V domains shown)
VH: EVQLLESGGGLVQPGGSLRLSCAASGFTFSVYLMHWVRQAPGKGLEWVSGISPSGGYTQYADSVKGRFTISRDNSKNTLYLQMNSLRAEDTAVYYCARPGGLDAFDIWGQGTMVTVSS
VL: DIQMTQSPSSLSASVGDRVTITCRASQSINTYLNWYQQKPGKAPKVLIHAASTLESGVPSRFSGSGSGTDFTLTISSLQPEDFATYYCQQSYSTPPTFGQGTKVEIK
As to B1, the Human pKal ELISA (T/B) (T/B (target signal / background signal)) turned out to be 1.5.

B2: M29-E02 (Fab, V domains shown)
VH: EVQLLESGGGLVQPGGSLRLSCAASGFTFSRYPMMWVRQAPGKGLEWVSVIYPSGGDTFYADSVKGRFTISRDNSKNTLYLQMNSLRAEDTAVYYCASGDDYLWEAAVYWGQGTLVTVSS
VL: QSVLTQPPSVSEAPRQRVTISCSGSSSNIGNNAVSWYQQLPGKAPKLLIYYDDLLPSGVSDRFSGSKSGTSASLAISGLRSEDEADYYCAAWDDSLNGFVFGTGTKVTVL
Molecule B2 displayed a Human pKal ELISA (T/B) (T/B (target signal / background signal)) of 2.
